Ends that are not written are not given here.
Experiments:
[1] = in vitro skin permeation; cited from earlier work
[2] = in vitro and in vivo studies; cited from earlier work
[3] = system: PTH receptor (rat osteosarcoma cell line UMR106); test: adenylate cyclase stimulation / cAMP in UMR106 cells (PTH receptor activation); type: cell-based; settings: for EC50: cAMP, 5 minutes, 1 mM IBMX, read-out: EC-50 (effective concentration)
Experimental: The peptide was then desalted and partially purified on a SepPak column. Individual peaks were isolated and analyzed by electrospray mass spectrometry to determine the composition.
PTH concentrations were determined by OD280 using an extinction coefficient of 6600 for the recombinant peptide and 5500 for the synthetic peptide. […] Activation of the PTH receptor leads to an intracellular rise in cAMP concentration.
The UMR106 cells were seeded at about 2.5×10^5 per well in a 48 well dish and allowed to grow to confluence. Assays were performed on cells 3-5 days postconfluence. The media (Dulbecco's modified Eagle's medium, DMEM, with fetal calf serum) was removed, and 1 mL of fresh media was applied. PTH (recombinant or synthetic) at various concentrations and 3-isobutyl-1-methyl xanthine (IBMX) at 1 mM final concentration were then added to each well of the plate, which was then incubated for 5 minutes at room temperature. The media was then removed and the cells quickly washed with ice cold PBS. The cells were then extracted twice with 1 mL of absolute ethanol. The two extractions were combined and the ethanol removed by evaporation. The extract was then redissolved in 1 mL of scintillation proximity buffer (SPA buffer) (Amersham, Arlington Heights, Ill.). The cAMP concentration was determined by assay using a scintillation proximity assay (SPA) kit available from Amersham.

[4] = Circular dichroism in varying trifluoroethanol concentrations, PTH analogs; type: physicochemical; design: [θ]222 (mean residue ellipticity): unit not given here; settings: for [θ]222 (mean residue ellipticity): pH 6.5 10 mM cacodylate, 20° C; for helicity: 30% (v/v) TFE
Experimental: The trifluoroethanol (TFE) circular dichroism studies were done using an AVIV Associates, Inc. Model 62DS Circular Dichroism Spectrometer. Protein concentrations were determined from absorbance readings using calculated extinction coefficients for the analogs in 10 mM ionic buffer. TFE titrations were done from 0 to 50% TFE, scanning from 250 to 200 nm at 20° C. for each TFE sample.

[5] = In vitro electrotransport flux of the PTH analogs; settings: retro-inverso versions, 1 mM, pH 5.0, 0.1 mA/cm^2, 32° C, BSA/Tween 20 receptor
[6] = Stability when incubated with stripped stratum corneum; type: in vitro ADME, human
PTH receptor [7] = target: T1, PTH receptor (rat, UniProt P25961)
Target sequence in this assay (P25961 27-591): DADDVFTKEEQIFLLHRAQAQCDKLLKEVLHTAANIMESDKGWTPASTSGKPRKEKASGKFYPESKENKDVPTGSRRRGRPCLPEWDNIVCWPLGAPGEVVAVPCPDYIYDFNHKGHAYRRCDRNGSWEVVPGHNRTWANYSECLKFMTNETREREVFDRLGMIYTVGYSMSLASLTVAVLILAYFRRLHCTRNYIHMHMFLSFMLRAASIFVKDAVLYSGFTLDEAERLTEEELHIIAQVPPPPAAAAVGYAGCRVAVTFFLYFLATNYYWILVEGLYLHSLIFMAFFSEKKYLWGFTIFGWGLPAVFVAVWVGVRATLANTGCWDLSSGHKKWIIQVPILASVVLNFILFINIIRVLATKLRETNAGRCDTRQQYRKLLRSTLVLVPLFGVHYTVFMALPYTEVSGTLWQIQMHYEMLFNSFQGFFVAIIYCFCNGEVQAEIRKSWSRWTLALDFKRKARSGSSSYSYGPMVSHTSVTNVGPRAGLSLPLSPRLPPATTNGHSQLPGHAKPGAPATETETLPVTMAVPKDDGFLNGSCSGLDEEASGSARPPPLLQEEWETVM

PTH receptor (rat) = PTH receptor (rat) (UniProt P25961)
PTH receptor [8] = target: T1, PTH receptor; test: Kd reported in the PTH analog activity assay on UMR106 cells; the method used for the Kd is not described

Sequence of PTH receptor (rat) (P25961 27-591): as above

## NC(=O)[C@@H]1CCCN1C(=O)[C@H](Cc1cnc[nH]1)NC(=O)[C@@H]1CCC(=O)N1 [thyrotropin releasing hormone]
[1]
  electrotransport flux compared with passive diffusional flux: higher than passive diffusional flux

## NC(=O)CC[C@@H]1NC(=O)[C@H](Cc2ccccc2)NC(=O)[C@H](Cc2ccc(O)cc2)NC(=O)[C@@H](N)CSSC[C@@H](C(=O)N2CCC[C@H]2C(=O)N[C@@H](CCCN=C(N)N)C(=O)NCC(N)=O)NC(=O)[C@H](CC(N)=O)NC1=O [vasopressin]
[2]
  transdermal delivery via electrotransport: possible

## PTH analog 1: FIG. 1B (SEQ ID NO:7): Met8Leu, Leu15Arg, Met18Leu, Glu19Arg, Glu22Arg, Gln29Lys, Phe34Tyr, homoserine lactone at the C-terminus
[3]; UMR106 cells
  EC50: 0.9 nM
[4]; 0% TFE
  [θ]222 (mean residue ellipticity): -4205
[4]; 10% TFE
  [θ]222 (mean residue ellipticity): -9333
[4]; 20% TFE
  [θ]222 (mean residue ellipticity): -23098
[4]
  helicity: about 80%
[4]; 30% TFE
  [θ]222 (mean residue ellipticity): -26334
[4]; 40% TFE
  [θ]222 (mean residue ellipticity): -27580
[4]; 50% TFE
  [θ]222 (mean residue ellipticity): -27705
[5]; 95% CI: analog 1 0.1 to 0.7, analog 2 2.1 to 4.2
  median mass flux (95% confidence interval): 0.3 μg cm^-2 h^-1
[5]; sd: analog 1 ±2.3, analog 2 ±3.7
  average mass flux ± sd: 1.4 μg cm^-2 h^-1
[6]
  stability when incubated with stripped stratum corneum: not stable

## PTH analog 3: amino acid sequence of FIG. 1D (SEQ ID NO:9); recombinantly synthesized (SVSEIQLMHNLGKHLNSMERPEWLRKKPQDVHNF)
[3]; UMR106 cells
  activity (ability to stimulate adenylate cyclase): no measurable activity
[4]; 0% TFE
  [θ]222 (mean residue ellipticity): -3867
[4]; 10% TFE
  [θ]222 (mean residue ellipticity): -6479
[4]; 20% TFE
  [θ]222 (mean residue ellipticity): -12329
[4]
  helicity: about 15%
[4]; 30% TFE
  [θ]222 (mean residue ellipticity): -15161
[4]; 40% TFE
  [θ]222 (mean residue ellipticity): -15191
[4]; 50% TFE
  [θ]222 (mean residue ellipticity): -15395
[4]; no TFE
  helix in the absence of the helix-inducing TFE (in words): essentially devoid of helix

## Synthetic PTH having the wild-type sequence (ligand)
PTH receptor [7]
  stimulation of adenylate cyclase (intracellular cAMP, scintillation proximity assay) in UMR106 cells: 4.4 nM

## Wild-type PTH: wild-type, parent PTH polypeptide, FIG. 1A (SEQ ID NO:6), 34 amino acid residues [reference compound]
[3]; UMR106 cells
  EC50: 4.4 nM

## insulin: insulin, cited electrotransport study
[2]
  transdermal delivery via electrotransport: possible

B1: PTH analog 1 (1-35) (ligand)
peptide: SVSEIQLLHNLGKHRNSLRRVRWLRKKLKDVHNY-{HSL}
PTH receptor (rat)
  stimulation of adenylate cyclase (intracellular cAMP, scintillation proximity assay) in UMR106 cells: 0.9 nM
PTH receptor [8]
  Kd: 1.5 nM

B2: RPTH: recombinant PTH (RPTH), HPLC purified or crude Sep-Pak purified (peptide, UniProt P01270 32-115, looked up)
Parathyroid hormone: SVSEIQLMHNLGKHLNSMERVEWLRKKLQDVHNFVALGAPLAPRDAGSQRPRKKEDNVLVESHEKSLGEADKADVNVLTKAKSQ
[3]; crude Sep-Pak purified sample compared with HPLC purified RPTH
  adenylate cyclase stimulatory ability, crude Sep-Pak purified vs HPLC purified: no significant difference in adenylate cyclase stimulatory ability
